*: point of attachment. Biotin = O=C1N[C@H]2[C@H](CS[C@H]2CCCCC(=O)*)N1; TTDS = Trioxatridecan-succinamic acid linker

In article PMC12808100 (2025) one finds Kd data, which are given here for six molecules.

The target of one assay is HA-POLE2 (human, UniProt P56282 1-527). Put plainly: nHU, apparent Kd, f = 0.82.
The target of another assay is HA-MBP-POLE2 (human, UniProt P56282 1-527). The experiment in a line: nHU in cell extract, apparent Kd, f = 0.37.
Assay [1] addresses catalytic subunit of DNA polymerase ε (POLE), endogenous (human (endogenous in Jurkat and in …, UniProt Q07864 1-2286)). The experiment in a line: nHU, apparent Kd.
For assay [2], the target named is His6-AviTag-MBP-TEV-POLE2 (human, UniProt P56282 1-527, biotin on the AviTag (BirA co-expressed, biotin in the medium)). Put plainly: nHU, apparent Kd.
Sequence of His6-AviTag-MBP-TEV-POLE2 (P56282 whole entry): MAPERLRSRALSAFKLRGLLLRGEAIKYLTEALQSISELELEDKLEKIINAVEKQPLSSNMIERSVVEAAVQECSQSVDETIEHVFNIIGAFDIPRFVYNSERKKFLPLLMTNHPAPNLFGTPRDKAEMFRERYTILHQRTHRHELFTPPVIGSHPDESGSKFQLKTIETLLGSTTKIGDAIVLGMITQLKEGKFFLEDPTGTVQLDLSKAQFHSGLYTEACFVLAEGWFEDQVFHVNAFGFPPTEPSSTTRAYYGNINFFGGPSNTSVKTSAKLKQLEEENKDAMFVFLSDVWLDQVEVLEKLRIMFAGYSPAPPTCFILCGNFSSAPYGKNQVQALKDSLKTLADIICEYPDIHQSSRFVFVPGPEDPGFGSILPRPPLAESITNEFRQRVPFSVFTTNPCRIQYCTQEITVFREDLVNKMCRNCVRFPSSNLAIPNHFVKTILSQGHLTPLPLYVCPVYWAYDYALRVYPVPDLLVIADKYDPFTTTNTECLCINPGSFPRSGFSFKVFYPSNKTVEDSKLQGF

Sequence of catalytic subunit of DNA polymerase ε (POLE), endogenous (human (Q07864 whole entry): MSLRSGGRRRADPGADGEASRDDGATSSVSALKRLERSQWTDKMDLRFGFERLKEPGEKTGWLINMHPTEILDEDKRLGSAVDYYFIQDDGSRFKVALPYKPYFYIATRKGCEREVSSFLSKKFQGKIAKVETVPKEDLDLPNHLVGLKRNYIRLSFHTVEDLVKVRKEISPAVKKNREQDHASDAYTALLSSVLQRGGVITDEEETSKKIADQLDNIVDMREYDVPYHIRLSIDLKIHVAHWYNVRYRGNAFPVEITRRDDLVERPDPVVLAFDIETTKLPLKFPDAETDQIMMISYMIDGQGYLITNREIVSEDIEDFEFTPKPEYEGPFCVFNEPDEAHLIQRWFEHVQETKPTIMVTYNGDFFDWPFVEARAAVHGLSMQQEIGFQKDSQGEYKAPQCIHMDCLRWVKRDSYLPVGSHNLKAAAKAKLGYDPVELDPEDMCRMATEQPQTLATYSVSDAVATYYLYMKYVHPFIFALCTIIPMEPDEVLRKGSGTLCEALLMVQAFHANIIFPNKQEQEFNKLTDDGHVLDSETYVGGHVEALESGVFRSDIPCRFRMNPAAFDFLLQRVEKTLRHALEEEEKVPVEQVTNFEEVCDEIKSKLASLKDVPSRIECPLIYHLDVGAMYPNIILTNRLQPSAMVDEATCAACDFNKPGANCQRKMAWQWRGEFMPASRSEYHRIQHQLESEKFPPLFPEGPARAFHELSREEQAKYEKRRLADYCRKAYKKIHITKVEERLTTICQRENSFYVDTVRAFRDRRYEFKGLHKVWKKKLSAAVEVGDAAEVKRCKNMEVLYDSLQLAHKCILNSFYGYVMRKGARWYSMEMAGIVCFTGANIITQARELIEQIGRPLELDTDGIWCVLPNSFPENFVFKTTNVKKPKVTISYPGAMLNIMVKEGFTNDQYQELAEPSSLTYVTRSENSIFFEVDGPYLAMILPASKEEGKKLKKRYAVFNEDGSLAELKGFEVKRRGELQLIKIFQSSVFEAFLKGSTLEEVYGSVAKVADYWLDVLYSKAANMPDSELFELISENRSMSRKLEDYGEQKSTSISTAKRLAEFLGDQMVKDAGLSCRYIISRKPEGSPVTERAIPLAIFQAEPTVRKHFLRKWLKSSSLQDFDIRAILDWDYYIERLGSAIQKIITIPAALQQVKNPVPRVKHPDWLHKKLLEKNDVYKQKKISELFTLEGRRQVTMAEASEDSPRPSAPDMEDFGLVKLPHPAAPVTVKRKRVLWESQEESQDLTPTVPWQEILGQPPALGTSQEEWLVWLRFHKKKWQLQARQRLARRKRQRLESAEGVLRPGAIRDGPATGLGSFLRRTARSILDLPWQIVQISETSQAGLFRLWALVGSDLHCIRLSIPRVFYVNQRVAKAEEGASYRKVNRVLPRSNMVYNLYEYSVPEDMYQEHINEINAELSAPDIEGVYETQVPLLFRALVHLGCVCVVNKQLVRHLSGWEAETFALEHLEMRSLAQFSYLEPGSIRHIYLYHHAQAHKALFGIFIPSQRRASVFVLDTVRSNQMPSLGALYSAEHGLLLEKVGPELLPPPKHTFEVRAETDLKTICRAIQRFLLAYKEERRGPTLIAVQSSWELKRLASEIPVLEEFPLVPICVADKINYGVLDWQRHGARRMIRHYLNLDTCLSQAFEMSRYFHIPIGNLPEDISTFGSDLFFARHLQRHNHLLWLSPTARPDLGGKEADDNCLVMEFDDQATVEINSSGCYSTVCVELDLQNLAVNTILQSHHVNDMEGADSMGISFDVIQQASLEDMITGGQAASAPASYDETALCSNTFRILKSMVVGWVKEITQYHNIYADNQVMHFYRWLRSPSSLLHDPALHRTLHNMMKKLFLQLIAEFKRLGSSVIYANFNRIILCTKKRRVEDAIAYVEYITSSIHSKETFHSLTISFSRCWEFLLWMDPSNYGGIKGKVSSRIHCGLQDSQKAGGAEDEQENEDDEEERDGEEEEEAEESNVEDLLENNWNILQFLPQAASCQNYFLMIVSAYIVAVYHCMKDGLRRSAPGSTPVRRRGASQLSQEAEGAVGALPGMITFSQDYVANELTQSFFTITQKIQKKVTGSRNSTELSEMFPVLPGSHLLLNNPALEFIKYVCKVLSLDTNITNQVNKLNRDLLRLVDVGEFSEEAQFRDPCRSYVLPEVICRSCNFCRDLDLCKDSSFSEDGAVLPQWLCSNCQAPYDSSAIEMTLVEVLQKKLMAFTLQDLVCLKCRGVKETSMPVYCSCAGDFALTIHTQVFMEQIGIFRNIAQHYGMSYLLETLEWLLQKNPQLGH
Sequence of HA-MBP-POLE2 (P56282 whole entry): as the sequence (P56282 whole entry) above
Sequence of HA-POLE2 (P56282 whole entry): as above

Consider {Biotin-TTDS}-GPAAARRNPFARLDNRPR-NH2 [NPF motif peptide of DONSON (residues 71-88)], for which the values for the Kd with HA-POLE2 and with HA-MBP-POLE2 were 520 nM and 1300 nM, respectively.

B1: NPF motif peptide of TTF2 (residues 116-143) (peptide)
peptide: HHSSNWLRNPFKVLDKNQEPALWKQLIK
HELM: PEPTIDE1{[O=C1N[C@H]2[C@H](CS[C@H]2CCCCC(=O)[*:2])N1].[O=C(CCCCCN[*:1])[*:2]].H.H.S.S.N.W.L.R.N.P.F.K.V.L.D.K.N.Q.E.P.A.L.W.K.Q.L.I.K.[am]}$$$$V2.0
SMILES: CC[C@H](C)[C@H](NC(=O)[C@H](CC(C)C)NC(=O)[C@H](CCC(N)=O)NC(=O)[C@H](CCCCN)NC(=O)[C@H](Cc1c[nH]c2ccccc12)NC(=O)[C@H](CC(C)C)NC(=O)[C@H](C)NC(=O)[C@@H]1CCCN1C(=O)[C@H](CCC(=O)O)NC(=O)[C@H](CCC(N)=O)NC(=O)[C@H](CC(N)=O)NC(=O)[C@H](CCCCN)NC(=O)[C@H](CC(=O)O)NC(=O)[C@H](CC(C)C)NC(=O)[C@@H](NC(=O)[C@H](CCCCN)NC(=O)[C@H](Cc1ccccc1)NC(=O)[C@@H]1CCCN1C(=O)[C@H](CC(N)=O)NC(=O)[C@H](CCCNC(=N)N)NC(=O)[C@H](CC(C)C)NC(=O)[C@H](Cc1c[nH]c2ccccc12)NC(=O)[C@H](CC(N)=O)NC(=O)[C@H](CO)NC(=O)[C@H](CO)NC(=O)[C@H](Cc1c[nH]cn1)NC(=O)[C@H](Cc1c[nH]cn1)NC(=O)CCCCCNC(=O)CCCC[C@@H]1SC[C@@H]2NC(=O)N[C@@H]21)C(C)C)C(=O)N[C@@H](CCCCN)C(N)=O
As to B1, the Kd in assay [1] is 720 nM.

B2: HA-WDHD1, full length, intact NPF motif (natural protein)
chain: MPATRKPMRYGHTEGHTEVCFDDSGSFIVTCGSDGDVRIWEDLDDDDPKFINVGEKAYSCALKSGKLVTAVSNNTIQVHTFPEGVPDGILTRFTTNANHVVFNGDGTKIAAGSSDFLVKIVDVMDSSQQKTFRGHDAPVLSLSFDPKDIFLASASCDGSVRVWQISDQTCAISWPLLQKCNDVINAKSICRLAWQPKSGKLLAIPVEKSVKLYRRESWSHQFDLSDNFISQTLNIVTWSPCGQYLAAGSINGLIIVWNVETKDCMERVKHEKGYAICGLAWHPTCGRISYTDAEGNLGLLENVCDPSGKTSSSKVSSRVEKDYNDLFDGDDMSNAGDFLNDNAVEIPSFSKGIINDDEDDEDLMMASGRPRQRSHILEDDENSVDISMLKTGSSLLKEEEEDGQEGSIHNLPLVTSQRPFYDGPMPTPRQKPFQSGSTPLHLTHRFMVWNSIGIIRCYNDEQDNAIDVEFHDTSIHHATHLSNTLNYTIADLSHEAILLACESTDELASKLHCLHFSSWDSSKEWIIDLPQNEDIEAICLGQGWAAAATSALLLRLFTIGGVQKEVFSLAGPVVSMAGHGEQLFIVYHRGTGFDGDQCLGVQLLELGKKKKQILHGDPLPLTRKSYLAWIGFSAEGTPCYVDSEGIVRMLNRGLGNTWTPICNTREHCKGKSDHYWVVGIHENPQQLRCIPCKGSRFPPTLPRPAVAILSFKLPYCQIATEKGQMEEQFWRSVIFHNHLDYLAKNGYEYEESTKNQATKEQQELLMKMLALSCKLEREFRCVELADLMTQNAVNLAIKYASRSRKLILAQKLSELAVEKAAELTATQVEEEEEEEDFRKKLNAGYSNTATEWSQPRFRNQVEEDAEDSGEADDEEKPEIHKPGQNSFSKSTNSSDVSAKSGAVTFSSQGRVNPFKVSASSKEPAMSMNSARSTNILDNMGKSSKKSTALSRTTNNEKSPIIKPLIPKPKPKQASAASYFQKRNSQTNKTEEVKEENLKNVLSETPAICPPQNTENQRPKTGFQMWLEENRSNILSDNPDFSDEADIIKEGMIRFRVLSTEERKVWANKAKGETASEGTEAKKRKRVVDESDETENQEEKAKENLNLSKKQKPLDFSTNQKLSAFAFKQE
As to B2, the Kd in assay [2] was 70 nM.

B3: HA-TTF2, full length, intact NPF motifs (natural protein)
chain: MEEVRCPEHGTFCFLKTGVRDGPNKGKSFYVCRADTCSFVRATDIPVSHCLLHEDFVVELQGLLLPQDKKEYRLFFRCIRSKAEGKRWCGSIPWQDPDSKEHSVSNKSQHASETFHHSSNWLRNPFKVLDKNQEPALWKQLIKGEGEEKKADKKQREKGDQLFDQKKEQKPEMMEKDLSSGLVPKKKQSVVQEKKQEEGAEIQCEAETGGTHKRDFSEIKSQQCQGNELTRPSASSQEKSSGKSQDVQRESEPLREKVTQLLPQNVHSHNSISKPQKGGPLNKEYTNWEAKETKAKDGPSIQATQKSLPQGHFQERPETHSVPAPGGPAAQAAPAAPGLSLGEGREAATSSDDEEEDDVVFVSSKPGSPLLFDSTLDLETKENLQFPDRSVQRKVSPASGVSKKVEPSDPVARRVYLTTQLKQKKSTLASVNIQALPDKGQKLIKQIQELEEVLSGLTLSPEQGTNEKSNSQVPQQSHFTKTTTGPPHLVPPQPLPRRGTQPVGSLELKSACQVTAGGSSQCYRGHTNQDHVHAVWKITSEAIGQLHRSLESCPGETVVAEDPAGLKVPLLLHQKQALAWLLWRESQKPQGGILADDMGLGKTLTMIALILTQKNQEKKEEKEKSTALTWLSKDDSCDFTSHGTLIICPASLIHHWKNEVEKRVNSNKLRVYLYHGPNRDSRARVLSTYDIVITTYSLVAKEIPTNKQEAEIPGANLNVEGTSTPLLRIAWARIILDEAHNVKNPRVQTSIAVCKLQACARWAVTGTPIQNNLLDMYSLLKFLRCSPFDEFNLWRSQVDNGSKKGGERLSILTKSLLLRRTKDQLDSTGRPLVILPQRKFQLHHLKLSEDEETVYNVFFARSRSALQSYLKRHESRGNQSGRSPNNPFSRVALEFGSEEPRHSEAADSPRSSTVHILSQLLRLRQCCCHLSLLKSALDPMELKGEGLVLSLEEQLSALTLSELRDSEPSSTVSLNGTFFKMELFEGMRESTKISSLLAELEAIQRNSASQKSVIVSQWTNMLKVVALHLKKHGLTYATIDGSVNPKQRMDLVEAFNHSRGPQVMLISLLAGGVGLNLTGGNHLFLLDMHWNPSLEDQACDRIYRVGQQKDVVIHRFVCEGTVEEKILQLQEKKKDLAKQVLSGSGESVTKLTLADLRVLFGI
Consider B3, for which the Kd in assay [2] amounted to 300 nM.

B4: NPF motif peptide of WDHD1 (residues 906-924) (peptide)
peptide: SSQGRVNPFKVSASSKEPA
HELM: PEPTIDE1{[O=C1N[C@H]2[C@H](CS[C@H]2CCCCC(=O)[*:2])N1].[O=C(CCCCCN[*:1])[*:2]].S.S.Q.G.R.V.N.P.F.K.V.S.A.S.S.K.E.P.A.[am]}$$$$V2.0
SMILES: CC(C)[C@H](NC(=O)[C@H](CCCCN)NC(=O)[C@H](Cc1ccccc1)NC(=O)[C@@H]1CCCN1C(=O)[C@H](CC(N)=O)NC(=O)[C@@H](NC(=O)[C@H](CCCNC(=N)N)NC(=O)CNC(=O)[C@H](CCC(N)=O)NC(=O)[C@H](CO)NC(=O)[C@H](CO)NC(=O)CCCCCNC(=O)CCCC[C@@H]1SC[C@@H]2NC(=O)N[C@@H]21)C(C)C)C(=O)N[C@@H](CO)C(=O)N[C@@H](C)C(=O)N[C@@H](CO)C(=O)N[C@@H](CO)C(=O)N[C@@H](CCCCN)C(=O)N[C@@H](CCC(=O)O)C(=O)N1CCC[C@H]1C(=O)N[C@@H](C)C(N)=O
For B4, the Kd in assay [1] was 14000 nM.

B5: HA-ERCC6L, full length, intact NPF motif (natural protein)
chain: MEASRRFPEAEALSPEQAAHYLRYVKEAKEATKNGDLEEAFKLFNLAKDIFPNEKVLSRIQKIQEALEELAEQGDDEFTDVCNSGLLLYRELHNQLFEHQKEGIAFLYSLYRDGRKGGILADDMGLGKTVQIIAFLSGMFDASLVNHVLLIMPTNLINTWVKEFIKWTPGMRVKTFHGPSKDERTRNLNRIQQRNGVIITTYQMLINNWQQLSSFRGQEFVWDYVILDEAHKIKTSSTKSAICARAIPASNRLLLTGTPIQNNLQELWSLFDFACQGSLLGTLKTFKMEYENPITRAREKDATPGEKALGFKISENLMAIIKPYFLRRTKEDVQKKKSSNPEARLNEKNPDVDAICEMPSLSRKNDLIIWIRLVPLQEEIYRKFVSLDHIKELLMETRSPLAELGVLKKLCDHPRLLSARACCLLNLGTFSAQDGNEGEDSPDVDHIDQVTDDTLMEESGKMIFLMDLLKRLRDEGHQTLVFSQSRQILNIIERLLKNRHFKTLRIDGTVTHLLEREKRINLFQQNKDYSVFLLTTQVGGVGLTLTAATRVVIFDPSWNPATDAQAVDRVYRIGQKENVVVYRLITCGTVEEKIYRRQVFKDSLIRQTTGEKKNPFRYFSKQELRELFTIEDLQNSVTQLQLQSLHAAQRKSDIKLDEHIAYLQSLGIAGISDHDLMYTCDLSVKEELDVVEESHYIQQRVQKAQFLVEFESQNKEFLMEQQRTRNEGAWLREPVFPSSTKKKCPKLNKPQPQPSPLLSTHHTQEEDISSKMASVVIDDLPKEGEKQDLSSIKVNVTTLQDGKGTGSADSIATLPKGFGSVEELCTNSSLGMEKSFATKNEAVQKETLQEGPKQEALQEDPLESFNYVLSKSTKADIGPNLDQLKDDEILRHCNPWPIISITNESQNAESNVSIIEIADDLSASHSALQDAQASEAKLEEEPSASSPQYACDFNLFLEDSADNRQNFSSQSLEHVEKENSLCGSAPNSRAGFVHSKTCLSWEFSEKDDEPEEVVVKAKIRSKARRIVSDGEDEDDSFKDTSSINPFNTSLFQFSSVKQFDASTPKNDISPPGRFFSSQIPSSVNKSMNSRRSLASRRSLINMVLDHVEDMEERLDDSSEAKGPEDYPEEGVEESSGEASKYTEEDPSGETLSSENKSSWLMTSKPSALAQETSLGAPEPLSGEQLVGSPQDKAAEATNDYETLVKRGKELKECGKIQEALNCLVKALDIKSADPEVMLLTLSLYKQLNNN
For B5, the Kd in assay [2] is 2400 nM.
